# Biological target: magi3_human MAGI3 (UniProt Q5TCQ9)
# Sequence (Q5TCQ9 whole entry): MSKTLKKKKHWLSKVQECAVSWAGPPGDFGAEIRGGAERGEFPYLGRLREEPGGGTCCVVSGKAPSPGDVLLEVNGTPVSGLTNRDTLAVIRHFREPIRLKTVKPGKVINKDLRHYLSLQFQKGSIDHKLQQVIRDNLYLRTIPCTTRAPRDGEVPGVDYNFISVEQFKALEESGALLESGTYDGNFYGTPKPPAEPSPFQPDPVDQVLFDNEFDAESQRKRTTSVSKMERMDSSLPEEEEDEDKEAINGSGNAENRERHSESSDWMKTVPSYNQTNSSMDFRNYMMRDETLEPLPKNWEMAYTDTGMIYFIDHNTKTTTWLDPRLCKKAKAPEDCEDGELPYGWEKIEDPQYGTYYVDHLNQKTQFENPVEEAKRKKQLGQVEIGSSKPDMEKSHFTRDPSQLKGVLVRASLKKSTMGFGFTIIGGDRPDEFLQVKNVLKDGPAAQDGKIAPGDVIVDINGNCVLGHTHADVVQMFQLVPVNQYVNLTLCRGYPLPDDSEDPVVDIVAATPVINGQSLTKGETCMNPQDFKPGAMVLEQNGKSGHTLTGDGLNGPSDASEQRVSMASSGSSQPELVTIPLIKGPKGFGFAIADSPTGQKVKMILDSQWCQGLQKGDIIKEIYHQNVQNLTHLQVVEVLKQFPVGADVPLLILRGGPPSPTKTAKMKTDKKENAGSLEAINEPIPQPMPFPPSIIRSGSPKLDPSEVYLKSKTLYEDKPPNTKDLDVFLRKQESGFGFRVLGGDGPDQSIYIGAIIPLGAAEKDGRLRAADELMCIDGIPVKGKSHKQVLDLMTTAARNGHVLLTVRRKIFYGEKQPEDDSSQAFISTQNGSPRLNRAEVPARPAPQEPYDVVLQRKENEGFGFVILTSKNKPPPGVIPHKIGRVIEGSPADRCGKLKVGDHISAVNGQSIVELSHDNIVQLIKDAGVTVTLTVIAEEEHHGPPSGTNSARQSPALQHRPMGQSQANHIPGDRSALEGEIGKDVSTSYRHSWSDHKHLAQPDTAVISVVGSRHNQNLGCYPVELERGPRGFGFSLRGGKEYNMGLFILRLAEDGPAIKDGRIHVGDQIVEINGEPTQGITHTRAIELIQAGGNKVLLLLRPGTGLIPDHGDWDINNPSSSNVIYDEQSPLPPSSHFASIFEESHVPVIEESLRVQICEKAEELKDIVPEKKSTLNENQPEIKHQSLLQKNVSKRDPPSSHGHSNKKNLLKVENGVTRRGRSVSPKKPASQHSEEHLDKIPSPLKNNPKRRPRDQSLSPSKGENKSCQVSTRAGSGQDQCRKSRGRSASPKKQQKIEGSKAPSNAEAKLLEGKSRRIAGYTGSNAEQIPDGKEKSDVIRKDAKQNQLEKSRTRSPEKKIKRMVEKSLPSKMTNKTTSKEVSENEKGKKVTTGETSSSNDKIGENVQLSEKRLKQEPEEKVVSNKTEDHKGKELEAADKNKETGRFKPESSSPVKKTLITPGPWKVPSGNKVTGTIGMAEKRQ
# Beta-1 adrenergic receptor (Homo sapiens), P08588 E474A, sequence (P08588 whole entry E474A): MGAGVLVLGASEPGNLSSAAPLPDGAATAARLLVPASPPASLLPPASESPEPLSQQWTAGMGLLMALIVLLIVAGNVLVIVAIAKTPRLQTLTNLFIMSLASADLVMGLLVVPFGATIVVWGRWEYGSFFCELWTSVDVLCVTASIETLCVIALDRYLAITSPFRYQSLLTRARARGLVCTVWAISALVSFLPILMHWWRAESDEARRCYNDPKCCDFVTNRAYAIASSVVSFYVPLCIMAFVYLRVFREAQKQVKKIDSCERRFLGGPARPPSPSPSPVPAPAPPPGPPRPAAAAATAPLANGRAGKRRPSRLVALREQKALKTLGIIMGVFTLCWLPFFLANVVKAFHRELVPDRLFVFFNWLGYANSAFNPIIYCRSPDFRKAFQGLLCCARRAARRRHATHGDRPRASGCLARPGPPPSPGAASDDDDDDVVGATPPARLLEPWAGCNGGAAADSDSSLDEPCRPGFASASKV
# Beta-1 adrenergic receptor (Homo sapiens), P08588 V477I, sequence (P08588 whole entry V477I): as the sequence (P08588 whole entry E474A) above, with A474E, V477I counted along it
# Beta-1 adrenergic receptor (Homo sapiens), P08588 V477M, sequence (P08588 whole entry V477M): as the sequence (P08588 whole entry E474A) above, with A474E, V477M counted along it
# Beta-1 adrenergic receptor (Homo sapiens), P08588 S475A, sequence (P08588 whole entry S475A): as the sequence (P08588 whole entry E474A) above, with A474E, S475A counted along it
# Beta-1 adrenergic receptor (Homo sapiens), P08588 V477L, sequence (P08588 whole entry V477L): as the sequence (P08588 whole entry E474A) above, with A474E, V477L counted along it
# Beta-1 adrenergic receptor (Homo sapiens), P08588 V477A, sequence (P08588 whole entry V477A): as the sequence (P08588 whole entry E474A) above, with A474E, V477A counted along it
# Beta-1 adrenergic receptor (Homo sapiens), P08588 K476R, sequence (P08588 whole entry K476R): as the sequence (P08588 whole entry E474A) above, with A474E, K476R counted along it
# Beta-1 adrenergic receptor (Homo sapiens), P08588 E474T, sequence (P08588 whole entry E474T): as the sequence (P08588 whole entry E474A) above, with A474T counted along it
row,effect of a mutation on the interaction,Substance
1,decreasing interaction,"Beta-1 adrenergic receptor (Homo sapiens), P08588 E474T"
2,decreasing interaction,"Beta-1 adrenergic receptor (Homo sapiens), P08588 S475A"

# Further lines, the substance ahead of its results:
row,Substance,effect of a mutation on the interaction
1,"Beta-1 adrenergic receptor (Homo sapiens), P08588 E474A",decreasing interaction
2,"Beta-1 adrenergic receptor (Homo sapiens), P08588 K476R",decreasing interaction
3,"Beta-1 adrenergic receptor (Homo sapiens), P08588 V477A",decreasing interaction

# Biological target: magi3_human MAGI3 (UniProt Q5TCQ9)
# Remark: another data set of the same source
row,effect of a mutation on the interaction,Substance
1,decreasing interaction,"Beta-1 adrenergic receptor (Homo sapiens), P08588 V477I"
2,decreasing interaction,"Beta-1 adrenergic receptor (Homo sapiens), P08588 V477L"
3,decreasing interaction,"Beta-1 adrenergic receptor (Homo sapiens), P08588 V477M"
